The supplement of paper PMC9170038

Tested on: K4 kissing-loop RNA reporter
Experiment: apparent KD of K4 kissing-loop reporter; higher = weaker reporter binding
Conditions: Eterna round: R107
Procedure: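 RNA-MaP round R107: designed RNA switches with theophylline, tryptophan, arginine or FMN aptamers are transcribed on-chip within common flanks. They are titrated with a labelled K4 kissing-loop RNA reporter in RNA-MaP buffer (100 mM Tris pH 7.5, 80 mM KCl, 4 mM MgCl2), without ligand or with the indicated ligand. Median apparent KD per design.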

[1] = input ligand: theophylline 20 uM
[2] = input ligand: tryptophan 2.4 mM
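Further: bound reporter read as fluorescence of individual clusters on recovered sequencing chips by microscopy, with normalized cluster intensities fitted with a binding model.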

Sequence	apparent KD of K4 kissing-loop reporter (input ligand: FMN 200 uM)	apparent KD of K4 kissing-loop reporter (input ligand: arginine 13.2 mM)	apparent KD of K4 kissing-loop reporter (input ligand: none)	apparent KD of K4 kissing-loop reporter [1]	apparent KD of K4 kissing-loop reporter [2]
GCAGUGAUGUUGCACGAGUAGGCUGGAGUACGAGGACCGGUACGGCCGCCACUCGUACGGAAGUCGCUAAUUUAUGGAAUGGUGA [#06 K4 Tryptophan A Same State]	592 nM	381 nM	341 nM	413 nM	436 nM
UUAGGAGUGGAAGGAUAUCCUGGUGUGGGUGAUGUUAGUGAUGUUGAAAGUGCAGUGAUGUUGUGCGGAGAAGGUCCGGUGUUGA [BDazzled - #8 - Exc. FMN B]	147 nM	124 nM	176 nM	243 nM	145 nM
UGUGAUGUUGUGAUGUUUAGUGUUGUUGGGCAGGAUAUUGUAGAGGCGAGAAGGGCUUGUGUGAUGUAUGAGUGAUGUUUGUAGU [cffdmullin]	177 nM	89.6 nM	127 nM	142 nM	119 nM
UGGGCCGCCUGAGGAUAUAGAGACGAGUGAUGUUCGUGGAUCAGAGCCAGUGAUGUUGGGUUAUUUCUAGAAGGCGGGCGAACUU [Exclusion FMN B GF10]	116 nM	112 nM	120 nM	118 nM	120 nM
UGACUGGACUGAAGGAGCGGGCGAGACAAAGUCUCGAACUCUUAGUGAUGUUAGGAAAUAACCCAGGUAGGUCGCAGUCUAGUCU	243 nM	132 nM	178 nM	216 nM	188 nM
CAUACGCAUGGAGGAUAUGAGAUUACUCAUGUCAUUUAAUAUUCUCAGUGAUGUUGAGAUUUAGGCUCAGAAGGCCAUGUGUAUG [Ex FMN B 17]	355 nM	514 nM	630 nM	534 nM	525 nM
AAGUAGAUCAAGAUCUAGUAUCUAGAUCAACGAGGACCGGUACGGCCGCCACUCGAAUAAUAGAGUGAUGUUCUAAGAUCUACAA [AK1.4 SS Tryptophan A]	898 nM	716 nM	994 nM	968 nM	445 nM
GCAUCCAUGUGAGGAUAUCGAGACGAGUGAUGUUCGGGCACCAGACAGGGAGACCUGUCAAUGGCUUGAGAAGGCACAUGGAUGC	231 nM	196 nM	249 nM	199 nM	217 nM
CUAUCUUAAGAAGGAUAUUAUGUAACAAACGCAGGCGUAUUAGAAUCAGUGAUGUUGAAAUAGGUUUAAGAAGGUCUUAAAGAAA [theeternabot_sameState_KL_FMN_B_31]	593 nM	422 nM	326 nM	608 nM	243 nM
AUUUAAUGUAUAGAUUAUAUACAUUAUUCAGAGGAUAUGCUUUGAAGCAGAAGGCUGGAUGUAGUGAUGUUGCAAUUUUAAUUUA [JR_SSFMNA_Sub006]	214 nM	265 nM	236 nM	250 nM	163 nM
GAGGAUAGCGGAAGGAGCGAGUAAUGGAGUGAUGUUCCAAUCAAUAAAACACGAUAGAGUGCUCAGGUAGGUCGCCGUGGUGGUU [Exclusion Argiie B GF 13]	124 nM	143 nM	165 nM	277 nM	111 nM
AGGCGGCAUAAUUGACUGAAAAGAAAUUAACGAGGACCGGUACGGCCGCCACUCGAACACCAGUGAUGUUGGUAUGGGAUAAUUU [Exclusion Tryptophan A GF 18]	91.6 nM	62.7 nM	52.9 nM	169 nM	47 nM
UUGAGCCGGACUUAAGUCCGGCUCUGCGAGCGAGGACCGGUACGGCCGCCACUCGGUGCAGUGAUGUUGCAUGGCCGCAAGGCCG [#2 Exclusion - Tryptophan A Attempt #11 (HarryS)]	269 nM	209 nM	298 nM	231 nM	296 nM
UCCUAGGUUCGUCGGCGAAAGCCCUGCGAAGGAGCGUGCGAAAGUACAGGUAGGUCGCGCAGUGAUGUUGCACCUAGGUAAUAAA [#07 K4 Arginine A Exclusion]	905 nM	191 nM	319 nM	892 nM	375 nM
CAUGAGUGAUGUUCGUGCGCUUGGUCGAAGCGAGGACCGGUACGGCCGCCACUCGCUAUGGCGGCAUCUACCAGUGAUGUUGGUG [Same State Tryptophan A GF 2]	241 nM	171 nM	228 nM	202 nM	208 nM
UUUUUUUACUGAAGGAGCGGCAAUUGAUACGUAGAUAUAGUGAUGUUAUAUAAGAUAGAGAGCCAGGUAGGUCGCAGAUUUUUUU [ExArgB.W]	153 nM	171 nM	163 nM	167 nM	147 nM

Sequence	apparent KD of K4 kissing-loop reporter (input ligand: FMN 200 uM)	apparent KD of K4 kissing-loop reporter (input ligand: arginine 13.2 mM)	apparent KD of K4 kissing-loop reporter (input ligand: none)	apparent KD of K4 kissing-loop reporter [1]	apparent KD of K4 kissing-loop reporter [2]
CCAUCGCUGUUCGAUACCAGUCAUUUUUUAUUUUAUUUUUUUUUUGGAGUGAUGUUCCAAGACCCUUGGCAGCGGAUAGUGAUGG [whbob_SS_Theo_B_th80]	116 nM	143 nM	114 nM	145 nM	111 nM
CCUAUCUCAUACGAUACCAGUCAAUGAUCUUUGAUCAAUGCCAUCACCGAGUGAUGUUCGGACCCUUGGCAGCGUAUGAGAUAGG [whbob_Ex_Theo_B_sa103]	277 nM	225 nM	267 nM	452 nM	247 nM
ACACUAUCGUCAUAGACGGUAGUGAAAUCACAGGAUAUAAGUGAUGUUAGAAGGGUGAAAGACUGUAUCGAAUAGAUACAGUCAA [FmnA 3 #K4BetweenAptamer #OpenEnded]	1140 nM	605 nM	913 nM	861 nM	878 nM
UUUAAAUAUAGUGAUGUUAUAUAACAAUGACGAGGACCGGUACGGCCGCCACUCGAGAGAGAUAAUGAUAAAAUAAAUAAUUUUC [AstrosSSTrypA#1]	480 nM	654 nM	643 nM	628 nM	374 nM
CCGCCAUCAUCAGAUACCAGACUGAUGGCGGUAACCGCCAAGCGAGUGAUGUUCGCAUCAGUCCCUUGGCAGCUGAUGAAGACUG [Theo B SS t4]	255 nM	82.4 nM	110 nM	104 nM	154 nM
UUGGACCUUAGCCUCAAUAGAACUUUGUUACGAGGACCGGUACGGCCGCCACUCGUCGGGCUCCGAUAGCCAGUGAUGUUGGCAA [theeternabot_sameState_KL_Trp_A_16]	429 nM	405 nM	693 nM	1010 nM	212 nM
ACCGCAUUGGGCUGAUCCCAAUGCGCUGGUCGAGGACCGGUACGGCCGCCACUCGUCCAGUGAUGUUGGACUAGGGCAACUGAAG [Veraceer]	390 nM	244 nM	249 nM	449 nM	83.3 nM
AAUCACCGAGCGGCCGCCACUGCACAAAGCGAGUUUAUAGACACGGUACUGGAGUGAUGUUCGAGCAGGACCGGGCUAACUAAGC [theeternabot_sameState_KL_Trp_B_12]	871 nM	610 nM	1190 nM	758 nM	729 nM
AGUACAAUGGCGGCCGCCACUCAACGCAGAUCAAAGAUCUGCGUUCACUCAGUGAUGUUGAGUGAGAGGACCGGGCCUUUGUACA [Omei KL Tryp B SS B v5]	221 nM	180 nM	190 nM	170 nM	141 nM
UUAGAGAUCUCAGGAUAUCAGUGAUGUUGAGAUUCAGAUCUGAGAUAGAAUUCUAUCUCAGAUCAAUGAGAAGGGAGAUCUCAUU [AK4.4 Exc FMN B]	463 nM	540 nM	649 nM	699 nM	443 nM
AAGUCUCGUUAAUUCGUGGUUUCGAUCGAUACCAGUAGCGAGAGGUACCCUUGGCAGCGAAAUGAGUGAUGUUCAUGAAAGAAGA [KL-XTheoA11]	101 nM	124 nM	111 nM	153 nM	87.1 nM
UGACAUUGCUCAGAUACCAGACUUGAGGAUCACCCAAGUGCCAAAACGUACUAAAUAAAAGUCCCUUGGCAGCUGAGCAAUGUCU [TheoBX 13]	49.2 nM	45.9 nM	40.6 nM	88 nM	54.1 nM
AAGUGUGGUCCAGUGAUGUUGGAACCAGAUACCAGCGACAUAGUGCGCCCUUGGCAGCUGGCACACAUGCGCUGCACGACUAGAA [Riusveis]	206 nM	182 nM	207 nM	363 nM	168 nM
AAACAUCACUGGGAGUGAUGUUCUCAGUGACGAGGACCGGUACGGCCGCCACUCGCGAGAGAUAUAGUCUAGUAAUGACUGCAUU [Excl Tryptophan A V9]	299 nM	274 nM	292 nM	322 nM	391 nM
UGUGCCAAAUGUGAUACCAGCAUCCUGCAGUGAUGUUGCAUACGAGUGAUGUUCGUCCGAUGCCCUUGGCAGCGCAGUAGUUUGA [Same State Theophylline B GF 26]	264 nM	263 nM	307 nM	326 nM	239 nM
ACUGAGUUGACGAAAGUCAACAAUUGAGAAGGAGCGCACGAAAGUGCAGGUAGGUCGCUCAGUCCAGUGAUGUUGGAUCAUCAGA [#17 K4 Arginine A Same State]	324 nM	558 nM	383 nM	478 nM	275 nM
